Series [1] concerns iPS cells. Nature of the series: Example 6: evaluation of undifferentiated state maintainability (10 passages). As to conditions: for shape of iPS cells after 10 passages: Essential 8 and NutriStem not containing 2-mercaptoethanol, FIGS. 8A to 8D. Type of series: cell-based, human. As to the method: iPS cells were seeded onto cell culture surfaces coated with RCP-11 and RCP-5 and cultured in Essential 8. Every five to seven days after seeding, cell culture surfaces coated with RCP-11 and RCP-5 were newly prepared. The iPS cells were treated with TryPLE Select, separated into a single cell, and then collected. Thereafter, the iPS cells were subcultured by being seeded onto the newly prepared cell culture surfaces coated with RCP-11 and RCP-5. Under the conditions described above, the cells were cultured for 10 passages.
The iPS cells cultured for 10 passages on the RCP-11-coated surface were immobilized using 4 v/v % paraformaldehyde, and the membrane permeability was enhanced by using 1% by mass of Triton-X/PBS. After the cells were subjected to a blocking treatment using an Image IT Signal Enhancer (Invitrogen), an anti-NANOG antibody (AF 1997, R&D Systems, Inc.), an anti-OCT 3/4 antibody, an anti-SSEA-3 antibody, an anti-S SEA-4 antibody, a anti-Tra-1-60 antibody, and an anti-Tra-1-81 antibody (Stemcell Technologies Inc), an Alexa Fluor 555 binding rabbit anti-goat IgG antibody (Invitrogen), an FITC binding goat anti-mouse IgM antibody (Stemcell Technologies Inc), and DAPI (Dojindo Molecular Technologies, Inc.) were added thereto for labeling, and the cells were imaged using a fluorescence microscope.
In FIGS. 8A to 8D, the images on the left side are full images of the colony, and the images on the right side are magnified images. The scale bar in FIGS. 8A to 8D indicates 500 μm.
In FIGS. 9A to 9F, each of the images of stained cells is an image of stained iPS cells cultured on the RCP-11-coated surface by using Essential 8. The images on the left side are images of the cells stained with DAPI, and the images on the right side are images of the cells stained with NANOG (FIG. 9A), OCT 3/4 (FIG. 9B), SSEA-3 (FIG. 9C), SSEA-4 (FIG. 9D), Tra-1-60 (FIG. 9E), and Tra-1-81 (FIG. 9F). The scale bar in FIGS. 9A to 9F indicates […].

Series [2] can be described thus: Evaluation 1 about amount of residual polypeptide adsorbed (ELISA, media). Type of series: physicochemical. As to conditions: for Residual rate of polypeptide (%): four days after the starting of culture, amount adsorbed immediately after start = 100, coated at 100 μg/ml; for residual rate of adsorbed polypeptide, medium not containing versus containing 2-mercaptoethanol: FIGS. 5 and 6 and Table 13. The protocol: RCP-11 and RCP-5 were prepared by using a predetermined buffer (the dialysis buffer used in <GRAVY value and aggregation characteristics> of reference examples) such that their concentration became 100 μg/ml. The polypeptides were added to the respective wells of a plasma-treated 96-well plate made of polystyrene having a plasma-treated cell culture surface and held as they were for 2 hours at 37° C. so as to be adsorbed onto the plate, thereby obtaining a polypeptide-coated surface. After the wells were washed with PBS, the respective media were added thereto, followed by incubation at 37° C. for a predetermined time. The wells were washed with PBS, and then 20% by mass of an immunoblocking solution (DS Pharma Biomedical Co., Ltd.) was added thereto, followed by incubation for 30 minutes at 37° C., thereby performing a blocking treatment. After the wells were washed with PBS-T (PBS containing 0.05% by mass of Tween-20), 5% by mass of an immunoblocking solution (DS Pharma Biomedical Co., Ltd.) containing an anti-human vitronectin antibody (Thermo Fisher Scientific Inc.) was added thereto, followed by incubation for 2 hours at room temperature. After the wells were washed with PBS-T, a 5% by mass of immunoblocking solution (DS Pharma Biomedical Co., Ltd.) containing an HRP-labeled anti-IgG antibody (Thermo Fisher Scientific Inc.) was added thereto, followed by incubation for 1 hour at room temperature. After the wells were washed with PBS-T, a TMB Substrate (Wako Pure Chemical Industries, Ltd.) was added thereto for developing color, and then 1 N hydrochloric acid was added thereto to stop the color reaction. By using a plate reader, the absorbance was measured, and the amount of the residual RCP-11 and RCP-5 was determined (absorption wavelength: 450 nm, control wavelength: 650 nm).
In Table 13, the residual rate of RCP-11 and RCP-5 is expressed as a ratio (%) calculated by regarding the amount of the polypeptides adsorbed immediately after the starting of culture as being 100.
(ELISA stands for enzyme-linked immunosorbent assay.)

For series [3], the system named is human iPS cells ("Tic"). Briefly: Cell growth property evaluation 1 (different media). Type of series: cell-based. As to conditions: for cell growth properties with Essential 8 or NutriStem not containing 2-mercaptoethanol versus media containing it: Table 11; for Cell growth rate: polypeptide 100 μg/ml, 72 hours, RCP-11 with Essential 8 = 100%, n=3. The protocol:
Furthermore, for evaluation, human iPS cells (“Tic”) that were retention-cultured as described in <Cell adhesiveness evaluation 1> of reference example were treated with TrypLE Select (Invitrogen) for 5 minutes at 37° C. and separated into a single cell. After being subjected to centrifugation for 2 minutes at 300 rpm, the cells were collected, suspended in each medium, and used for the evaluation in each example. Herein, Y-27362 ((R)-(+)-trans-N-(4-pyridyl)-4-(1-aminoethyl)-cyclohexane carboxamide.2HCl.H2O, an Rho binding kinase inhibitor, Wako Pure Chemical Industries, Ltd.) was added to all of the media at a final concentration of 10 μM.
Each of RCP-11, RCP-5, and recombinant laminin (Human Recombinant Laminin-511: BIOLAMINA AB) as control was added to and suspended in a predetermined buffer (a dialysis buffer used in <GRAVY value and aggregation characteristics> of reference examples for RCP-11 and RCP-5, and PBS for the recombinant laminin) at the final concentration shown in Table 11, thereby preparing polypeptide solutions. The polypeptide solutions were added to the respective wells of a plasma-treated 96-well plate made of polystyrene (BD Falcon) having a plasma-treated cell culture surface and held as they were so as to be adsorbed onto the plate for 2 hours at 37° C. In this way, a peptide-treated 96-well plate having a polypeptide-coated surface was obtained. The iPS cells suspended in the respective media shown in Table 11 were seeded into the respective wells of the obtained peptide-treated 96-well plate at a cell density of 10,000 cells/well. After the cells were cultured for 72 hours, nonadhesive cells were washed off with PBS, and only adhesive cells were immobilized using 4% by mass of paraformaldehyde (Wako Pure Chemical Industries, Ltd.). By using an Attophos (registered trademark) AP Fluorescent Substrate System (Promega Corporation), the ALP activity was calculated, and from the calibration curve, the number of undifferentiated iPS cells having the ALP activity was calculated. In Table 11, the cell adhesion rate is expressed as a ratio calculated by regarding the number of pluripotent stem cells after the culture for 72 hours in a combination of RCP-11 and Essential 8 as being 100%. n=3.
In Table 11, “% by mass” in the concentration of 2-meracptoethanol is a proportion (w/v %) of mass (g) of 2-meracptoethanol per 100 mL of the total volume of the medium at the time of culture.

Setting [4] is: medium Essential8, 2-mercaptoethanol 0, 10,000 cells/well.
Setting [5] is: medium NutriStem, 2-mercaptoethanol 0.
[6] abbreviates: medium ReproFF2, 2-mercaptoethanol 102.4 μM (0.0008% by mass).
[7] abbreviates: medium StemPro hESC SFM, 2-mercaptoethanol 100 μM (0.00078% by mass).
[8] abbreviates: medium TeSR2, 2-mercaptoethanol 48.6 μM (0.00038% by mass).

B1: RCP-5: recombinant polypeptide for culture, SEQ ID NO: 19; vitronectin positions 1-55, 302-341, 342-373 (protein)
chain: MDQESCKGRCTEGFNVDKKCQCDELCSYYQSCCTDYTAECKPQVTRGDVFTMPEDEFWGRTSAGTRQPQFISRDWHGVPGQVDAAMAGRIYISGMAPRPSLAKKQRFRHRNRKGYRSQRGHSRGRNQN
modifications: Vitronectin-derived Recombinant Protein (RCP-5)
Consider B1, for which, in series [1], the “shape of iPS cells after 10 passages” value is on record as “shape specific to undifferentiated cells”. For the same molecule, the “Residual rate of polypeptide (%)” value in series [2] (Essential8) is on record as 65.6%; in series [2] (NutriStem), 62.5%; in series [2] (ReproFF2), 42.1%; in series [2] (Stempro hESC SFM), 35.3%; in series [2] (TeSR2), 44.0%. Also, the “residual rate of adsorbed polypeptide, medium not containing versus containing 2-mercaptoethanol” value in series [2] is on record as “decreases further with the passage of time”. Further, the “cell growth properties with Essential 8 or NutriStem not containing 2-mercaptoethanol versus media containing it” value in series [3] is “better”. Besides, the Cell growth rate came out at 84.4% in series [3] (setting [4]); 123% in series [3] (setting [5]); 70.3% in series [3] (setting [6]); 20.1% in series [3] (setting [7]); 54.4% in series [3] (setting [8]).

B2: RCP-11: recombinant polypeptide for culture, SEQ ID NO: 25; vitronectin positions 1-55, 269-277, 295-341, 342-373, C274S (protein)
chain: MDQESCKGRCTEGFNVDKKCQCDELCSYYQSCCTDYTAECKPQVTRGDVFTMPEDESQEESEGSEDIFELLFWGRTSAGTRQPQFISRDWHGVPGQVDAAMAGRIYISGMAPRPSLAKKQRFRHRNRKGYRSQRGHSRGRNQN
modifications: Vitronectin-derived Recombinant Protein (RCP-11)
notes: vitronectin positions 1-55, 269-277, 295-341, 342-373, C274S
Regarding B2, in series [1] (Essential 8, 10 passages, immunostaining, FIGS. 9A to 9F), the “expression of markers specific to undifferentiated cells” value was “expressed NANOG, OCT 3/4, SSEA-3, SSEA-4, Tra-1-60, and Tra-1-81”. In addition, the “shape of iPS cells after 10 passages” value in series [1] is “shape specific to undifferentiated cells”. For the same molecule, the “Residual rate of polypeptide (%)” value worked out at 71.8% in series [2] (Essential8); 63.5% in series [2] (NutriStem); 42.0% in series [2] (ReproFF2); 29.4% in series [2] (Stempro hESC SFM); 49.9% in series [2] (TeSR2). Also, in series [2], the “residual rate of adsorbed polypeptide, medium not containing versus containing 2-mercaptoethanol” value is “decreases further with the passage of time”. Further, in series [3], the “cell growth properties with Essential 8 or NutriStem not containing 2-mercaptoethanol versus media containing it” value is given as “better”. In addition, the Cell growth rate is on record as 100% in series [3] (setting [4]); 129.1% in series [3] (setting [5]); 84.7% in series [3] (setting [6]); 13.6% in series [3] (setting [7]); 71.8% in series [3] (setting [8]).

The values are drawn from US10487307B2, “Culture method for pluripotent stem cells” (FUJIFILM CORPORATION, priority 2013, dated 2019).
